These results are taken from publication PMC5481814, “Stapled Voltage-Gated Calcium Channel (CaV) α-Interaction Domain (AID) Peptides Act As Selective Protein–Protein Interaction Inhibitors of CaV Function” (ACS Chemical Neuroscience, 2017).

The target in test [1] is CaVβ2a core (unimolecular CaVβ2a construct) (rat). Description: ITC; 20 μM AID peptide titrated into 2 μM CaVβ2a core; 15 °C; 150 mM KCl, 10 mM potassium phosphate, pH 7.3; single site binding model.
Test [2] has as its target CaVβ2a core (Rattus norvegicus) (UniProt Q8VGC3). Nature of the test: ITC. The note with it: cited from earlier work.
Test [3] concerns the target Human CaV1.2 (α1C77) (human) (UniProt Q13936).
In test [4] the target is Human CaV1.2-Y437A (human).

CaVβ3 (expressed in oocytes), sequence (P54286 whole entry): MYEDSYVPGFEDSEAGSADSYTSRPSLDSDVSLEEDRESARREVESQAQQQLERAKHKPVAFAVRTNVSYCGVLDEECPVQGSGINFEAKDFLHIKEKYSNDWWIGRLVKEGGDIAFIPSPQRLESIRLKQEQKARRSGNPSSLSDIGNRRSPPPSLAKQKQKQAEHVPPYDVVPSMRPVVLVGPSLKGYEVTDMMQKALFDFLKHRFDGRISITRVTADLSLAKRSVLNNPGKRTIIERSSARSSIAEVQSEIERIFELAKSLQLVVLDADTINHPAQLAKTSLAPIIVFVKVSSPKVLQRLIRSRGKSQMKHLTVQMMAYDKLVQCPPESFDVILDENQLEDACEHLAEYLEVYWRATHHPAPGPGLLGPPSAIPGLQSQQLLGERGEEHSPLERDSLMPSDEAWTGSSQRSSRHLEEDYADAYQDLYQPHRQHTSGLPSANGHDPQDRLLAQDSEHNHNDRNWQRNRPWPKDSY
Human CaV1.2 (α1C77) (human), sequence (Q13936 other isoform, or with tags, fused parts or gaps): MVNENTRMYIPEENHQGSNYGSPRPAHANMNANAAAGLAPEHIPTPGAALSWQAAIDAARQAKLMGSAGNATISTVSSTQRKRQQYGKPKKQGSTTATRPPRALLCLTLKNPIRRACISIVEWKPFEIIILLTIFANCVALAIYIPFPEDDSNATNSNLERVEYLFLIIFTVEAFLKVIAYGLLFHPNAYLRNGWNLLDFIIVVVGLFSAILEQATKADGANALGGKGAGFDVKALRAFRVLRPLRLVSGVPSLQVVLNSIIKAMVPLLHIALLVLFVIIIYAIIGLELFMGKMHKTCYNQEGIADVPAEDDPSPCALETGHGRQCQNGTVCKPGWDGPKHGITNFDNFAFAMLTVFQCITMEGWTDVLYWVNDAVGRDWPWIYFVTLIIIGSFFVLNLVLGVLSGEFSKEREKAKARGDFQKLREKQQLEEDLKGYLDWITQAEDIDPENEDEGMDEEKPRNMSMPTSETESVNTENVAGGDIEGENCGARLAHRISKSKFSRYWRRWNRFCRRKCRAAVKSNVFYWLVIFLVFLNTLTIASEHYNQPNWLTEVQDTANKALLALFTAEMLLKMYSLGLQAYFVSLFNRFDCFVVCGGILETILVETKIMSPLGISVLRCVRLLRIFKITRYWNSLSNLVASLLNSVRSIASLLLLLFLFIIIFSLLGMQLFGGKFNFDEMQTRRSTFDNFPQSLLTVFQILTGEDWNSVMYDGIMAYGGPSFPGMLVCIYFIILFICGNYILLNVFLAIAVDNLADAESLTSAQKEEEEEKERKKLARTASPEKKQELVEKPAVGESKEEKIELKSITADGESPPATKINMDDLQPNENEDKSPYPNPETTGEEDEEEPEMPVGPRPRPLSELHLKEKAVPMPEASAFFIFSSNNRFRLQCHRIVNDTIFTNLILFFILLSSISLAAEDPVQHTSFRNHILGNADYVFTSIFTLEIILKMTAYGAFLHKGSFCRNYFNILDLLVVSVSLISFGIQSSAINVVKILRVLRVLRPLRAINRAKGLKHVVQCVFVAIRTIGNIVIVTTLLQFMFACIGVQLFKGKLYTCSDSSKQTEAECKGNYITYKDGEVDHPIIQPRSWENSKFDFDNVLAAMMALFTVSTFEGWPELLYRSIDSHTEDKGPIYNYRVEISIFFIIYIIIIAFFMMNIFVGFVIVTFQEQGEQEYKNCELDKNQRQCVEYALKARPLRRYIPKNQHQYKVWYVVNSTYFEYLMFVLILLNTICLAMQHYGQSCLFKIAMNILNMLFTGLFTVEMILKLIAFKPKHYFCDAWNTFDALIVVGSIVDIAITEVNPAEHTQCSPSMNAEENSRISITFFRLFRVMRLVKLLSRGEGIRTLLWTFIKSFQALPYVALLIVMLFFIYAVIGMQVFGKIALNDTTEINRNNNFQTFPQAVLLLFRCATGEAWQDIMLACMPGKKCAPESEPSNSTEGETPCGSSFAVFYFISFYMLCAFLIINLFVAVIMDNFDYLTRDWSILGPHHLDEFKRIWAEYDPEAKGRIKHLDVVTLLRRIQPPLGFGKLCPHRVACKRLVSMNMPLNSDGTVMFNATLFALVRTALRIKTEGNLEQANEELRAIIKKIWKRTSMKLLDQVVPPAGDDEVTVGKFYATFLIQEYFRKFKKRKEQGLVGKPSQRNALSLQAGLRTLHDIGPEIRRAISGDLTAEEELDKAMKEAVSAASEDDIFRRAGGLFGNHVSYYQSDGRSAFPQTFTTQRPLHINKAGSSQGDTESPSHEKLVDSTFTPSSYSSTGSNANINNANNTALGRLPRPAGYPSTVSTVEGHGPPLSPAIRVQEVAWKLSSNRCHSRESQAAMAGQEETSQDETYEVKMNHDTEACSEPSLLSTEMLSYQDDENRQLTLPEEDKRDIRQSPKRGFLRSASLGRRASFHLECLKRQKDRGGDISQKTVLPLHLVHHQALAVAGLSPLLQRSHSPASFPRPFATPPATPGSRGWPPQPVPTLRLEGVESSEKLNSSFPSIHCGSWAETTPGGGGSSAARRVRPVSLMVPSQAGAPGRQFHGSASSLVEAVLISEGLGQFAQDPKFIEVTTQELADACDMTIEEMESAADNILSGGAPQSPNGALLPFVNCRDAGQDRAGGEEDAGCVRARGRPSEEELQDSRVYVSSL
CaVβ2a core (Rattus norvegicus), sequence (Q8VGC3 68-476): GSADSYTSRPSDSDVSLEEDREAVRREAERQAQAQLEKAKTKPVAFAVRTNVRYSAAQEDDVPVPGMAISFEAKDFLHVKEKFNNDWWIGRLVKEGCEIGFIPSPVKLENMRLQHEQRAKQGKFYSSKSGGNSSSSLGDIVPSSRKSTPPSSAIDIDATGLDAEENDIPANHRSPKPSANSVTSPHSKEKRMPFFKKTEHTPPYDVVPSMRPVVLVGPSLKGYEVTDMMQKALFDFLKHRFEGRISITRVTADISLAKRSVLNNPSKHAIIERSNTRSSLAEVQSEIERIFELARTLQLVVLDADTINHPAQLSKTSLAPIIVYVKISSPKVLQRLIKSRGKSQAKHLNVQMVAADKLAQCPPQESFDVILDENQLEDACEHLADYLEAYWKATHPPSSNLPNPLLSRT
CaV1.2 AID peptide AID, sequence (Q13936 425-448): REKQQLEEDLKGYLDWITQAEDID

In test [1], “CaV1.2 AID peptide (α-interaction domain, unmodified)” returned a Kd of 6.6 nM, a dH of -15.6 kcal mol^–1 and a stoichiometry N of 0.94.

As for “CaV1.2 AID peptide AID (from UniProt Q13936)”, the Kd in test [2] is 5.3 nM.

In test [3], “CaVβ3 (expressed in oocytes) (from UniProt P54286 1-477) (natural protein)” had a time constant τ for the loss of CaV1.2:CaVβ3 channels (rundown of Imax, single exponential fit) after injection of 2.8 mM AID peptide of 4.6 min and a time constant τ for the loss of CaV1.2:CaVβ3 channels (rundown of Imax, single exponential fit) after injection of 2.8 mM AID-CAP peptide of 5.3 min.

For “Rat CaVβ2a (expressed in oocytes) (natural protein)”, in test [4], the time constant τ of the rundown of Imax of CaV1.2-Y437A:CaVβ2a currents after injection of 400 μM AID peptide (single exponential fit) was 5.3 min and the time constant τ of the rundown of Imax of CaV1.2-Y437A:CaVβ2a currents after injection of 400 μM AID-CAP peptide (single exponential fit) is 4.1 min.
